Laboratory results from patent publication US20240092922A1.

Legend:
[1] = biological target: chimeric (mouse and human) 4-1BB (c4-1BB) on transfected CHO cells (chimeric (mouse and human)); test: flow cytometry on CHO-c4-1BB cells, negative control panel, detection with anti-mouse-IgG-Fc-FITC (1:100)
[2] = biological target: human 4-1BB (h4-1BB) on transiently transfected CHO cells (human) (UniProt Q07011); test: flow cytometry on CHO cells transiently transfected with human 4-1BB, detection with anti-mouse-IgG-Fc-FITC (1:100), SSC-H against FITC; negative control panel
[3] = biological target: mouse 4-1BB (m4-1BB) on transfected CHO cells (mouse) (UniProt P20334); test: flow cytometry on CHO-m4-1BB cells, negative control panel, detection with anti-mouse-IgG-Fc-FITC (1:100)
[4] = biological target: monkey (Rhesus macaque) 4-1BB (r4-1BB) on transfected CHO cells (monkey (Rhesus macaque)); test: flow cytometry on CHO-r4-1BB (T) cells, negative control panel, detection with anti-mouse-IgG-Fc-PE (1:500)
[5] = biological target: Histidine-tagged human 4-1BB protein (h4-1BB-His) (human) (UniProt Q07011); test: SPR (Biacore T200), antibody on Protein A chip, h4-1BB-His injected

Chain of urelumab (antibody) (VH): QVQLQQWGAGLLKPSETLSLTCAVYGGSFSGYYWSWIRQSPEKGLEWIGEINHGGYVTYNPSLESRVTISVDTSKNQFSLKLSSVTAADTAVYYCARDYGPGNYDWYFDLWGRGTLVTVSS
Chain of urelumab (antibody) (VL): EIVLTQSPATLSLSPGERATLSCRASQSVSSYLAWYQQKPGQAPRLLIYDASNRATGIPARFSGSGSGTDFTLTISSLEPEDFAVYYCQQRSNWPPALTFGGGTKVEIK

percent of cells in the FITC-positive gate [1] | percent of cells in the FITC-positive gate [2] | percent of cells in the FITC-positive gate [3] | percent of cells in the PE-positive gate [4] | Kd [5] | koff [5] | kon [5] | Substance
1.07% | 0.598% | 0.983% | 0.429% |  |  |  | NC
 |  |  |  | 0.0443 µM | 0.00302 s⁻¹ | 68100 M⁻¹ s⁻¹ | urelumab (antibody)
